Reference: the DeepSol protein solubility set

test: soluble on expression in E. coli; label from the status in PepcDB or PDB records

Which “soluble on expression in E. coli” value does the source give for “MSNNGSSPLVLWYNQLGMKDVDRVGGKNASLGEMITNLSGMGVSVPNGFATTADAFNQFLDQSGVNQRIYELLDKTDIDDVTQLAKAGAQIRQWIIDTPFQPELENAIREAYAQLSADDENASFAVRSSATAEDMPDASFAGQQETFLNVQGFDAVLVAVKHVFASLFNDRAISYRVHQGYDHRGVALSAGVQRMVRSDLASSGVMFSIDTESGFDQVVFITSAWGLGEMVVQGAVNPDEFYVHKPTLAANRPAIVRRTMGSKKIRMVYAPTQEHGKQVKIEDVPQEQRDIFSLTNEEVQELAKQAVQIEKHYGHPMDIEWAKDGHTGKLFIVQARPETVRSRGQVMERYTLHSQGKIIAEGRAIGHRIGAGPVKVIHDISEMNRIEPGDVLVTDMTDPDWEPIMKKASAIVTNRGGRTCHAAIIARELGIPAVVGCGDATERMKDGENVTVSCAEGDTGYVYAELLEFSVKSSSVETMPDLPLKVMMNVGNPDRAFDFACLPNEGVGLARLEFIINRMIGVHPRALLEFDDQEPQLQNEIREMMKGFDSPREFYVGRLTEGIATLGAAFYPKRVIVRLSDFKSNEYANLVGGERYEPDEENPMLGFRGAGRYVSDSFRDCFALECEAVKRVRNDMGLTNVEIMIPFVRTVDQAKAVVEELARQGLKRGENGLKIIMMCEIPSNALLAEQFLEYFDGFSIGSNDMTQLALGLDRDSGVVSELFDERNDAVKALLSMAIRAAKKQGKYVGICGQGPSDHEDFAAWLMEEGIDSLSLNPDTVVQTWLSLAELKK” here?
The value was “not soluble”.

With “MNKFIAAEAAECIGCHACEIACAVAHNQENWPLSHSDFRPRIHVVGKGQAANPVACHHCNNAPCVTACPVNALTFQSDSVQLDEQKCIGCKRCAIACPFGVVEMVDTIAQKCDLCNQRSSGTQACIEVCPTQALRLMDDKGLQQIKVARQRKTAAGKASSDAQPSRSAALLPVNSRKGADKISASERKTHFGEIYCGLDPQQATYESDRCVYCAEKANCNWHCPLHNAIPDYIRLVQEGKIIEAAELCHQTSSLPEICGRVCPQDRLCEGACTLKDHSGAVSIGNLERYITDTALAMGWRPDVSKVVPRSEKVAVIGAGPAGLGCADILARAGVQVDVFDRHPEIGGMLTFGIPPFKLDKTVLSQRREIFTAMGIDFHLNCEIGRDITFSDLTSEYDAVFIGVGTYGMMRADLPHEDAPGVIQALPFLTAHTRQLMGLPESEEYPLTDVEGKRVVVLGGGDTTMDCLRTSIRLNAASVTCAYRRDEVSMPGSRKEVVNAREEGVEFQFNVQPQYIACDEDGRLTAVGLIRTAMGEPGPDGRRRPRPVAGSEFELPADVLIMAFGFQAHAMPWLQGSGIKLDKWGLIQTGDVGYLPTQTHLKKVFAGGDAVHGADLVVTAMAAGRQAARDMLTLFDTKAS” as the sequence, how does the “soluble on expression in E. coli” value read?
The value was “not soluble”.

Which “soluble on expression in E. coli” value does the source give for “MSLTVVQLTDIHFQWPYPYVTKKKLASIVEKVNEINPDFIFLTGDFISRYRTYNISKYNTETIAFYLGQLRAKRGIYAIQGNNDRCAGDMLLKAFKENGVRMLMNEGIIDDDISITGILSSKNIDICNTWLNQTKIPDAPLKILLSHQPDTALVTYPFFDLQFSGHTHGGQCIAPFGIGPILHPKMGHKFIVGVYKIGNMILHVSTGIGISPLPKPLVRFNNIAEVSVIRVVPEEGHHHHHH” here?
Its value is “not soluble”.

Which “soluble on expression in E. coli” value does the source give for “MGSDKIHHHHHHMDHIQAMRVFVRIVELGSFSRAAERLALPRATVSNTIKQLEGRLGVRLLQRTTRQVQITDEGRVYYERCLQLLAEIEEIDTLFTQQKLQPVGKVRVDMPHSLAREIVVPALGEFYARYPQVTLMLSANDAAINVLREGVDCVLRAWQTDDETLATRHLPSMPQVTCASADYLARYGVPRSLDELSGHHMVGYFSLRTEYLYPLEFMSGDERITRMLPGTLQVNGADAYIAGACAGLGIIQAPRRGLISLLDGGELVEILPEIPPPAMPLYVMYTPGRFLAPRIRVFIEWLDELFTRNAAVR” here?
The value was “not soluble”.

Which “soluble on expression in E. coli” value does the source give for “MFYLGIDAGGTKTSFMLINHLGEVLSTYTSGTCHIHQVGFDGFRKGIQEGIDKICSEINICRDDLSYSFLGLPAYGENESEKLKMNSIIAEILGENKFSCGNDVEVALAGSLAGQPGICIILGTGAIASGITNDLKTARTSGWGYICGDEGSGYWIAKKGVEIFGKQSDHRLERTALYDIFKNELKLENDFDLIFLIKDKYKQDRTKVANLAMLVYKAALKGDKYALDIYRQAAKECLLMVNGLTNQLEFTGVLNISYSGSVFNSKEFILDPLRNYLQDNYTAFNLTAPILPPIKGAALNALKLHKGEIPEGVVHNLAKEPKEILVLEHHHHHH” here?
Its value is “not soluble”.

With “MIKLERETKPDYLSDEKVFELTESFKATKKSVWNHDHIKIPLLRSSHSKCAYCECPLTSASNYMEVEHFEDKNHYPEKVVLWENLLPSCKKCNGAKGQHDVIGDPIINPYVEDPKNHLSMRLYRFRAKSDKGQSTIEVTQLNSSDRSVFCRYEIGEKISEMIDLGFERWNEYLVRNNTRSKNKLVNLVQGLLNECQPTSSYSASTATNLLTDPKFIELMSLMREADIVSEELDDLILKASTLVLDYVLEHHHHHH” as the sequence, how does the “soluble on expression in E. coli” value read?
The value was “not soluble”.

For “MGSDKIHHHHHHMIRYPVLKEGATIGVTAPSSGVPKDLHDLVKAACERMEERGFRVVCGETVWTQEKAKSSEAKKRATELQAMMEDDAIDLMIPPWGGQLLIEVLQFLDFEQWEPKWILGYSDTSLLLLAITLNTGIATAHGTNLVDLRGEYSDDTTAMWQPVLSTKIGDSIVQHSSKKYQKEWDFERPTPCVFHLTEKTKWQGVPKQTLSINGRLLGGCIDVIRHLIGTPYGDVTRFQADVIKGAPIIWFFENCELTTTDLRRTLVQMKLAGWFDHCSGIMFGRSPTNTPVEDYTVDDVFRDLYEELKVPLMTDIDCGHVPPQLTLINGAYAEVKLNDGKGIVTQFFKE”, which “soluble on expression in E. coli” value is on record?
The value was “not soluble”.

Which “soluble on expression in E. coli” value does the source give for “MEKRIVCLAGDGVGPEVMESAKEVLHMVERLYGHHFHLQDEHFGGVAIDLTGQPLPQRTLAACLASDAVLLGAVGGPRWDGAKERPEKGLLALRKGLGVFANVRPVTVESATAHLSPLKKADEIDFVVVRELTGGIYFSYPKERTDEVATDTLTYHRHEIERIVSCAFQLASKRKKKVTSIDKANVLESSKLWRIVTEEVALRYPDVELEHILVDAAAMELIRNPGRFDVIVTENLFGDILSDEASVLAGSLGMLPSASHAEKGPSLYEPIHGSAPDIAGKNKANPIAMMRSVAMMLGQSFGLTREGCAIEEAISAVLKSGKCTADIGGTETTTSFTKAVMQEMEEQALVGRGR” here?
Its value is “not soluble”.

For “LLYIDNIPLVEYNNIIQVEYVVINMLKHGILGLLNYGDMTGYEIMKVFRDSLSFFWTANTSQIYRELNTLKKDGFVTDIVVKQTGKPDKKVFSITESGREELKRWLREYDYGNRNSPLCMKVFFSGELPKEENIERLREIKNEAQQAIERYSSVFETMKIYKGMVARPEDSVYWNMTVEYGIRYMKMLSEWCDCCIKILEDVEK”, which “soluble on expression in E. coli” value is on record?
Its value is “soluble”.

For “MKEVKKEYLTLDEVKILAQTPCEHDVLKRASLFSCLTGLRISDILNLRWEDFTLAPDQGYCIRIRTQKTSTEATLPISYEAYELCGEPSSGKVFKGLQRSMINYPLKKWIKQAGIMKHITFHCFRHSYAVIQISLGTDIYTVSKMLTHKNVSTTQIYADLEHHHHHH”, which “soluble on expression in E. coli” value is on record?
The value was “not soluble”.

With “GPGSMKIGVVLGSGGHTSEMLRAITEIPLSYWLDTRPFYVVSATDPHSASLASQLEQQRFERRVVVYTIPRAREVGQSYLMSIITTIRATLACFRFVCTEKPDVLLTNGPGVCVPVIAAAVCVASCAPWWYGRPAIVYMESFTCVSHLSLTGSLLAPWLADVFTVHWRALERAVARRRRRGTLVYVGSETARVTDGAPHRLRSLAAEQEAYALVTVGSTKFSSLVQAVVQPGVCATLHQRFGIKRLYVQHGTAEVVAPPEATLLPALPMAAGADASHPTQQWSCGGLLVEAFPYRPCLDAVIRGATLVITHAGAGTILEGLQAQRPLVVVPNRQLMSDHQLDLAEALANGGFLFCVQVAELAERLPLLDLTTLRPHGGMDAAQLQEALRLVLTGHSASGERAKAD” as the sequence, how does the “soluble on expression in E. coli” value read?
Its value is “not soluble”.

With “MEKLNRAADDSMINTLSEKSNEFSFYQAVLLLEKHYQFEPNSNFVAVGENKYFHQERIEFSVSPNLCFPKSDMEFIVHMERNGQQYSRVETNFLGLHGSSSPLPVSYTEKLTGREPDDNPVKDFFDFFHNRYTSLLYRVWKKYRYHVQYQSGATDAFSGRMLHLAGLSGVMQDCGVAELDRAKVLSYVNQLSTRTRSPKLISGIVSHYFSLPSVRIEEWVYRRVEIADSQRNKLNRANCILGQSFHLGQSIADLNGKFNLCIDDIDFETFKQFSYEGELHKTLVGLMRFILRDPMSWDLKLTVNLDSIPNNQLGNGEGNNLGQTFWLGNPTDEDVKIRVIGSI” as the sequence, how does the “soluble on expression in E. coli” value read?
The value was “not soluble”.

Which “soluble on expression in E. coli” value does the source give for “MGLSCTDDWRVIDLPGSFITVTNLNQFTLNGDGFAARMEMTLVAPDHGGDSDLIAMGELIEQAISGVRSLGGAIESIELNQQVTPPHGGKAPASTMTFTLFYDMENEE” here?
The value was “not soluble”.

For “GAMGGMHLVGVLDIAKDILKANKRLADKNRKLLNKHGVVAFDFMGAIGSGKTLLIEKLIDNLKDKYKIACIAGDVIAKFDAERMEKHGAKVVPLNTGKECHLDAHLVGHALEDLNLDEIDLLFIENVGNLICPADFDLGTHKRIVVISTTEGDDTIEKHPGIMKTADLIVINKIDLADAVGADIKKMENDAKRINPDAEVVLLSLKTMEGFDKVLEFIEKSVKEVK”, which “soluble on expression in E. coli” value is on record?
Its value is “soluble”.

Which “soluble on expression in E. coli” value does the source give for “MAVDAVGRQKTIQEIIDSTTNKSTQRNTGELGKDEFLNLLITQLQYQDPLNPVDDKEFISQMAQFSALEQMQNLNKSFSATKAFGMIGKYITGTTSNGSDSGAGFVEGIVRSVKMENGKILLEVNGLDVPVDNVLSVSEESNYYYKYNSSNISQYTGIIGYEVSGSVYDPSTGDIVGVSGIVREIQKGIYEDYAVMDGVEVIISGIDTEFNSADPNFRKDYLTENVGQGVSLIITDAYGYGFKVPVTGVLKDFKIAPNGKIIGILDGVYVPVDSISNIKKPSANTGAADGTNENPQVEQSQTEESQVEEPQVGEPRDEESDSV” here?
Its value is “soluble”.

Which “soluble on expression in E. coli” value does the source give for “AAVIEKRATCSNGKTVGDASCCAWFDVLDDIQQNLFHGGQCGAEAHESIRLVFHDSIAISPAMEAQGKFGGGGADGSIMIFDDIETAFHPNIGLDEIVKLQKPFVQKHGVTPGDFIAFAGAVALSNCPGAPQMNFFTGRAPATQPAPDGLVPEPFHTVDQIINRVNDAGEFDELELVFMLSAHSVAAVNDVDPTVQGLPFDSTPGIFDSQFFVETQLRGTAFPGSGGNQGEVESPLPGEIRIQSDHTIARDSRTACEWQSFVNNQSKLVDDFQFIFLALTQLGQDPNAMTDCSDVIPQSKPIPGNLPFSFFPAGKTIKDVEQACAETPFPTLTTLPGPETSVQRIPPPPGA” here?
Its value is “soluble”.

With “MSLPQFSVDLCLFDLDGTIVSTTTAAESAWKKLCRQHGVDPVELFKHSHGARSQEMMKKFFPKLDNTDNKGVLALEKDMADNYLDTVSLIPGAENLLLSLDVDTETQKKLPERKWAIVTSGSPYLAFSWFETILKNVGKPKVFITGFDVKNGKPDPEGYSRARDLLRQDLQLTGKQDLKYVVFEDAPVGIKAGKAMGAITVGITSSYDKSVLFDAGADYVVCDLTQVSVVKNNENGIVIQVNNPLTRDEGHHHHHH” as the sequence, how does the “soluble on expression in E. coli” value read?
The value was “soluble”.

For “MGSDKIHHHHHHMTWNTPKPGEWKSEELSKGRIIDYKAFNFVDGEGVRNSLYVAGCMFHCEGCYNVATWSFDAGIPYTQELEEQIMEDLAQPYVQGLTLLGGEPFLNTGILLPLLKRIRKELPEKDIWSWTGYTWEELMLETPDKLEMLNLLDILVDGRFDKSKKNLMLQFRGSSNQRIIDVPKSLASGQVVIWDKLNDGKQTYEQIDRDGLI”, which “soluble on expression in E. coli” value is on record?
Its value is “not soluble”.
